Test results from patent publication US20160223554A1, “METHODS FOR DIAGNOSIS, PROGNOSIS AND METHODS OF TREATMENT” (priority 2011, published 2016).

How the values were obtained:
Format in all cases: cell-based, human
AML blasts [1] = assay: DNA damage response (p-H2AX, p-Chk2) to chemotherapeutics in primary AML samples (Example 20); conditions: for timing of induced DNA damage (pH2AX) relative to apoptosis: primary AML samples; for DDR: pH2AX, 48 hour treatment
Experimental: (§1) Cryopreserved peripheral blood (PBMC) or bone marrow (BMMC) mononuclear cells were obtained from patients with a new diagnosis of AML treated at British Columbia Cancer Agency or Lucile Packard Children's Hospital at Stanford University. All patients provided informed consent for research purposes. Samples were processed (thawed, modulated, fixed, permeabilized, and incubated with antibodies to both surface and intracellular proteins) as previously described (Kornblau, Minden et al., Dynamic single-cell network profiles in acute myelogenous leukemia are associated with patient response to standard induction therapy, 2010, Journal/Clin Cancer Res, 16, 14, 3721-3733; Rosen, Minden et al., Functional characterization of FLT3 receptor signaling deregulation in acute myeloid leukemia by single cell network profiling (SCNP), 2010, Journal/PLoS One, 5, 10, e13543). In this study, cellular DNA damage repair (DDR) and apoptosis were measured simultaneously in AML blasts after exposure to chemotherapeutic agents. Antibodies against phosphorylated (p)-H2AX or p-Chk2 were used to measure the DDR to DSB, while simultaneous measurements of cleaved PARP (c-PARP) and amine aqua viability dye were used to quantify apoptosis and cell death. Chemotherapeutics included Ara-C/Dauno (the two drugs currently used in standard AML induction therapy), Gemtuzumab Ozogamicin (GO), and three other agents currently being evaluated in AML clinical trials [Decitabine (DEC), 5-azacytidine (AZA) and Clofarabine (CLO)]. […] Drug-specific incubation times were chosen to analyze both DDR and apoptosis readouts: Ara-C/Dauno (24 hours), GO, CLO, AZA, DEC (48 hours). […] Similarly, apoptosis responses were not observed for DEC until 48 hours and were higher for AZA at 48 hours (data not shown). PI3Kinase/Akt and Raf/Ras pathway activities were assessed using stem cell factor (SCF) induced p-Akt and p-Erk readouts. Data was acquired on an LSRII flow cytometer and leukemic cells were identified by CD45 versus right-angle light-scatter. Metrics for DDR (Log2Fold) and induced apoptosis have been described previously (Rosen, Putta et al., Distinct patterns of DNA damage response and apoptosis correlate with Jak/Stat and PI3kinase response profiles in human acute myelogenous leukemia, 2010, Journal/PLoS One, 5, 8, e12405).

AML blasts [2] = assay: In vitro drug-induced apoptosis (c-PARP, amine aqua) in primary AML samples (Example 20); conditions: for cells induced to undergo apoptosis: sample COG-06 (MDR+); for cells induced to undergo apoptosis / cells undergoing apoptosis / apoptotic cells: 48 hours, CLO 0.25 μM, AZA 2.5 μM, DEC 0.625 μM; for Apo: 48 hour treatment; for cells undergoing apoptosis: sample COG-07
Experimental: as §1

AML blasts [3] = assay: SCNP signaling and apoptosis nodes in AML BMMC (Example 4, Study No. 2)
AML blasts [4] = assay: SCNP phospho-flow signaling nodes in AML PBMC (Example 2, Study No. 1); conditions: for Mean Value of CRs: CR patients; for Mean Value of CRs / Mean Value of NRs: Study No. 1; for Mean Value of NRs: NR patients
Experimental: Frozen cells are thawed in a 37° C. water bath and gently resuspended in the vial and transferred to the 15 mL conical tube. The 15 mL tube is centrifuged at 930 RPM (200×g) for 8 minutes at room temperature. The supernatant is aspirated and the pellet is gently resuspended in 1 mL media A. The cell suspension is filtered through a 70 um cell strainer into a new 15 mL tube. The cell strainer is rinsed with 1 mL media A and another 12 ml of media A into the 15 mL tube. The cells are mixed into an even suspension. A 20 μL aliquot is immediately removed into a 96-well plate containing 180 μL PBS+4% FBS+CD45 Alexa 700+PI to determine cell count and viability post spin. After the determination, the 15 mL tubes are centrifuged at 930 RPM (200×g) for 8 minutes at room temperature. The supernatant is aspirated and the cell pellet is gently resuspended in 4 mL PBS+4 μL Amine Aqua and incubated for 15 min in a 37° C. incubator. 10 mL RPMI+1% FBS is added to the cell suspension and the tube is inverted to mix the cells. The 15 mL tubes are centrifuged at 930 RPM (200×g) for 8 minutes at room temperature. The cells are resuspended in Media A at the desired cell concentration (1.25×10^6/mL). For samples with low numbers of cells (<18.5×10^6), the cells are resuspended in up to 15 mL media. For samples with high numbers of cells (>18.5×10^6), the volume is raised to 10 mL with media A and the desired volume is transferred to a new 15 mL tube, and the cell concentration is adjusted to 1.25×10^6 cells/ml. 1.6 mL of the above cell suspension (concentration at 1.25×10^6 cells/ml) is transferred into wells of a multi-well plate. From this plate, 80 ul is dispensed into each well of a subsequent plate. The plates are covered with a lid (Nunc) and placed in a 37° C. incubator for 2 hours to rest.
A concentration for each stimulant that is five folds more (5×) than the final concentration is prepared using Media A as diluent. 5× stimuli are arrayed into wells of a standard 96 well v-bottom plate that correspond to the wells on the plate with cells to be stimulated.
Adding the stimulant: The cell plate(s) are taken out of the incubator and placed in a 37° C. water bath next to the pipette apparatus. The cell plate is taken from the water bath and gently swirled to resuspend any settled cells. With pipettor, the stimulant is dispensed into the cell plate and vortexed at “7” for 5 seconds. The deep well plate is put back into the water bath.
The plate is covered with foil sealer and incubated in a 37° C. water bath for 10 minutes. The plate is spun for 6 minutes at 2000 rpm at room temperature. The cells are aspirated using a 96 well plate aspirator (VP Scientific). The plate is vortexed to resuspend cell pellets in the residual volume. The pellet is ensured to be dispersed before the Methanol step (see cell permeabilization) or clumping will occur.
Cell Permeabilization: Permeability agent, for example methanol, is added slowly and while the plate is vortexing. To do this, the cell plate is placed on titer plate shaker and made sure it is secure. The plate is set to shake using the highest setting. A pipetter is used to add 0.6 mls of 100% methanol to the plate wells. The plate(s) are put on ice until this step has been completed for all plates. Plates are covered with a foil seal using the plate roller to achieve a tight fit. At this stage the plates can be stored at −80° C.
Cells are thawed if frozen. Cells are pelleted at 2000 rpm 5 minutes. Supernatant is aspirated with vacuum aspirator. Plate is vortexed on a “plate vortex” for 5-10 seconds. Cells are washed with 1 mL FACS buffer. Repeat the spin, aspirate and vortex steps as above. 50 μL of FACS/stain buffer with the desired, previously optimized, antibody cocktail is added to two rows of cells at a time and agitate the plate. The plate is covered and incubated in a shaker for 30 minutes at room temperature (RT). During this incubation, the compensation plate is prepared.

[5] = Fold metric, all patients, Study No. 2
[6] = Study No.2, patients less than 60 years old
[7] = Study No.2, patients with De Novo AML
[8] = Fold metric, Study No. 1, CRp patient included in NR group
[9] = Total Phospho metric, Study No. 1, CRp patient included in NR group
[10] = read-out p-Stat3, metric TotalPhospho

`Nc1ncn([C@@H]2O[C@H](CO)[C@@H](O)[C@H]2O)c(=O)n1` [AZA, 5-azacytidine] was tested, and the “timing of induced DNA damage (pH2AX) relative to apoptosis” value (shortened to “timing … (pH2AX) relative to apoptosis”) (AML blasts [1]) was “coincident with apoptosis”, the “cells induced to undergo apoptosis” value (AML blasts [2]) was 77.5% and the Apo (AML blasts [2]; sample COG-06) was “+ (For Apo, “+” signifies induced apoptosis >50%.)”. The cells undergoing apoptosis (AML blasts [2]) was 32%, the Apo (AML blasts [2]; sample COG-09) was “+ (For Apo, “+” signifies induced apoptosis >50%.)” and the apoptotic cells (AML blasts [2]; sample COG-09) was 57%.

`Nc1nc(Cl)nc2c1ncn2[C@@H]1O[C@H](CO)[C@@H](O)[C@@H]1F` [CLO] was tested, and the “timing … (pH2AX) relative to apoptosis” value (AML blasts [1]) was “before apoptosis”, the “DNA damage response (DDR)” value (AML blasts [1]; sample COG-06) was “robust DDR” and the DDR (AML blasts [1]; sample COG-06) was “+ (For DDR, “+” signifies Log2Fold >0.5 (in live cPARP- cells).)”. The “DNA damage response (DDR)” value (AML blasts [1]; sample COG-07) was “defective DDR”, the “DNA damage response (DDR)” value (AML blasts [1]; sample COG-09) was “robust DDR” and the DDR (AML blasts [1]; sample COG-09) was “+ (For DDR, “+” signifies Log2Fold >0.5 (in live cPARP- cells).)”. For the same molecule, the “cells induced to undergo apoptosis” value (AML blasts [2]) was 81%, the Apo (AML blasts [2]; sample COG-06) was “+ (For Apo, “+” signifies induced apoptosis >50%.)” and the cells undergoing apoptosis (AML blasts [2]) was 20%. It also gave an apoptotic cells (AML blasts [2]; sample COG-09) of 13%.

For `Nc1ncn([C@H]2C[C@H](O)[C@@H](CO)O2)c(=O)n1` [DEC], the “cells induced to undergo apoptosis” value (AML blasts [2]) was 55.8%, the Apo (AML blasts [2]; sample COG-06) was “+ (For Apo, “+” signifies induced apoptosis >50%.)” and the cells undergoing apoptosis (AML blasts [2]) was 29%. It also gave an apoptotic cells (AML blasts [2]; sample COG-09) of 5%.

With `C/C=C/C[C@@H](C)C(=O)[C@H]1C(=O)N[C@@H](C(C)C)C(=O)N(C)CC(=O)N(C)[C@@H](CC(C)C)C(=O)N[C@@H](C(C)C)C(=O)N(C)[C@@H](CC(C)C)C(=O)N[C@@H](C)C(=O)N[C@H](C)C(=O)N(C)[C@@H](CC(C)C)C(=O)N(C)[C@@H](CC(C)C)C(=O)N(C)[C@@H](C(C)C)C(=O)N1C` [PSC833] the “effect of co-treatment on GO-induced apoptosis” value (AML blasts [2]; sample COG-06, resistant to Ara-C/Dauno and GO, co-treatment with GO) was “substantially sensitized the leukemic cells to GO-induced apoptosis”.

In the case of “GO: recombinant humanized IgG4, kappa antibody conjugated with a cytotoxic antitumor antibiotic, calicheamicin”, the “timing … (pH2AX) relative to apoptosis” value (AML blasts [1]) is reported as “before apoptosis”.

B1: IFNg: cytokine modulator of Jak/Stat pathway (protein, UniProt P01579 24-161, looked up)
Interferon gamma: QDPYVKEAENLKKYFNAGHSDVADNGTLFLGILKNWKEESDRKIMQSQIVSFYFKLFKNFKDDQSIQKSVETIKEDMNVKFFNSNKKKRDDFEKLTNYSVTDLNVQRKAIHELIQVMAELSPAAKTGKRKRSQMLFRG
In the case of B1, the “Mean Value of CRs, p-Stag” value (AML blasts [3]; [5]) is reported as −0.02, the “Mean Value of NRs, p-Stag” value (AML blasts [3]; [5]) is reported as 0.2 and the “Mean Value of CRs, p-Stat1 Fold” value (AML blasts [3]; [6]) is reported as 1.35. For the same molecule, the “Mean Value of CRs, p-Stat1 TotalPhospho” value (AML blasts [3]; [6]) was 2.40, the “Mean Value of CRs, p-Stat3 TotalPhospho” value (AML blasts [3]; [6]) was 1.60 and the “Mean Value of CRs, p-Stat5 Fold” value (AML blasts [3]; [6]) was 0.68. For the same molecule, the “Mean Value of NRs, p-Stat1 Fold” value (AML blasts [3]; [6]) was 2.96, the “Mean Value of NRs, p-Stat1 TotalPhospho” value (AML blasts [3]; [6]) was 4.13 and the “Mean Value of NRs, p-Stat3 TotalPhospho” value (AML blasts [3]; [6]) was 2.71. The “Mean Value of NRs, p-Stat5 Fold” value (AML blasts [3]; [6]) was 1.67, the “Mean Value of CRs, p-Stat3 Fold” value (AML blasts [3]; [7]) was −0.04 and the “Mean Value of CRs, p-Stat3 TotalPhospho” value (AML blasts [3]; [7]) was 1.59. The “Mean Value of NRs, p-Stat3 Fold” value (AML blasts [3]; [7]) was 0.24, the “Mean Value of NRs, p-Stat3 TotalPhospho” value (AML blasts [3]; [7]) was 2.48 and the “Mean Value of CRs, p-Stat1” value (AML blasts [4]; [8]) was 0.45. For the same molecule, the “Mean Value of NRs, p-Stat1” value (AML blasts [4]; [8]) was 0.91, the “Mean Value of CRs, p-Stat1” value (AML blasts [4]; [9]) was 0.67 and the “Mean Value of CRs, p-Stat3” value (AML blasts [4]; [9]) was 0.68. The “Mean Value of CRs, p-Stat5” value (AML blasts [4]; [9]) was 1.62, the “Mean Value of NRs, p-Stat1” value (AML blasts [4]; [9]) was 1.27 and the “Mean Value of NRs, p-Stat3” value (AML blasts [4]; [9]) was 1.3. For the same molecule, the “Mean Value of NRs, p-Stat5” value (AML blasts [4]; [9]) was 2.35, the “Mean Value of CRs” value (AML blasts [4]; read-out p-Stat1, metric Fold) was 0.53 and the “Mean Value of NRs” value (AML blasts [4]; read-out p-Stat1, metric Fold) was 0.90. For the same molecule, the “Mean Value of CRs” value (AML blasts [4]; [10]) was 0.74 and the “Mean Value of NRs” value (AML blasts [4]; [10]) was 1.30.
